Measurements reported in patent WO1996020011A1.

Target: LoVo tumour cells (carcinoembryonic antigen, the antigen of A5B7, on the cells) (human) (UniProt P06731)
Assay: binding of the 125I-labelled conjugate to LoVo tumour cells, method of Lindmo et al.

UniProt P06731, sequence (P06731 35-702): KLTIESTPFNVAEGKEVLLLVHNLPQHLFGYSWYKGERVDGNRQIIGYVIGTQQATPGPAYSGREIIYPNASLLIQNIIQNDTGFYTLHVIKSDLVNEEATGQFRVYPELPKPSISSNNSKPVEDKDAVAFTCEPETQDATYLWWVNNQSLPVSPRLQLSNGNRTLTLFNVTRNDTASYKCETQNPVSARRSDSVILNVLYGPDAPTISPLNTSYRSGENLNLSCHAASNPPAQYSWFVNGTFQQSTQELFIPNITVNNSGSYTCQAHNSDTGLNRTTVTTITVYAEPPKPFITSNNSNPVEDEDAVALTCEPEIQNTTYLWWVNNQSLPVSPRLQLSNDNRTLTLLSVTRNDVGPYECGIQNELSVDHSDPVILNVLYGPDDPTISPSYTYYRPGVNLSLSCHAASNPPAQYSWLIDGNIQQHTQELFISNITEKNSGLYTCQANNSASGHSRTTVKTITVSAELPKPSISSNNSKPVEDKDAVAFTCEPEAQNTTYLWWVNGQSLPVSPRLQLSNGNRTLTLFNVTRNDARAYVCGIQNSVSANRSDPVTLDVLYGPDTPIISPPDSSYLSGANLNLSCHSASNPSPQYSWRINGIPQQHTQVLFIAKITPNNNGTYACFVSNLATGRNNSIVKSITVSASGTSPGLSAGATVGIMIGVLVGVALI

immunoreactivity retained after radioiodination: > 50%
Substance: murine A5B7 F(ab')2-bovine pancreatic ribonuclease conjugate, radioiodinated with 125I (from UniProt P61823 27-150)
